The values below come from publication PMC12509998.

In assay [1] the target is eukaryotic elongation factor 2 kinase (UniProt O00418).
Assay [2] shares this target. The source holds these as a separate data set.

Sequence of eukaryotic elongation factor 2 kinase (O00418 whole entry): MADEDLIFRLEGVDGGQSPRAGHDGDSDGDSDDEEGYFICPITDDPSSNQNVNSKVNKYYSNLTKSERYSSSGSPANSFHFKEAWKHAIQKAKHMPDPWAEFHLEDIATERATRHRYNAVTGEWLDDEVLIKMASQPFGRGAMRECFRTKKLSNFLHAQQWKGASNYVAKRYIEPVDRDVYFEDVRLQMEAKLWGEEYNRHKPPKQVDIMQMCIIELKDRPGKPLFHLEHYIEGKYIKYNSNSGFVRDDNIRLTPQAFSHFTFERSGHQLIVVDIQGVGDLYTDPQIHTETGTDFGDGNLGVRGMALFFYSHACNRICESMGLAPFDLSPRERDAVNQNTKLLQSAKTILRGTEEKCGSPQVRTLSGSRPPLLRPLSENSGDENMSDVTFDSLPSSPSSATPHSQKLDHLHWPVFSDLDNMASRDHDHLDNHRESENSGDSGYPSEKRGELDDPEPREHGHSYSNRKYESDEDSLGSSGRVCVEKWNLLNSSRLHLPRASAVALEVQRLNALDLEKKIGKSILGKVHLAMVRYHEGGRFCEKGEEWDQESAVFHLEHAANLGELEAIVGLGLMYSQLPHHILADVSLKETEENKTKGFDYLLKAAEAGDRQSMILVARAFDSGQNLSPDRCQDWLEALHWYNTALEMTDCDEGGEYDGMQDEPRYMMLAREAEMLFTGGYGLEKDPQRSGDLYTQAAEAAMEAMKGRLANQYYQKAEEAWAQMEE

In assay [1], “isolated C-terminal lobe of calmodulin (residues 76-148) (from UniProt P0DP23 77-149) (domain or fragment)” came in with a KCaM (concentration of CaMC at half-maximal activity) of T348-phosphorylated eEF-2K toward 150 μM peptide substrate, 50 μM free Ca2+ of 85 nM. The KCaM^app of eEF-2K (0.5 nM) activity toward 5 μM yeast eEF-2, 50 μM free Ca2+ in assay [2] is 156 nM.
For “calmodulin, full-length (from UniProt P0DP23 1-149) (natural protein)”, in assay [1], the KCaM (concentration of CaM at half-maximal activity) of T348-phosphorylated eEF-2K toward 150 μM peptide substrate, 50 μM free Ca2+ is 67 nM. In assay [2], the KCaM^app of eEF-2K (0.5 nM) activity toward 5 μM yeast eEF-2, 50 μM free Ca2+ was 121 nM.
